Source: the supplement of paper PMC9112550, “Optimization of the antimicrobial peptide Bac7 by deep mutational scanning” (BMC Biology, 2022)

What follows are sequences tested on Escherichia coli TOP10 (assay: shrunken log2 fold change of peptide-encoding DNA abundance (4.5 h post-induction vs induction); higher = less antimicrobial activity (less host growth inhibition)). Conditions: time post-induction: 4.5 h; library: site-saturation at positions 5, 18, 19, 20.
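Note: peptides expressed intracellularly from a pBAD plasmid library in pooled LB shake-flask culture, induced with 0.3% L-arabinose, DNA abundance read by NGS, three biological replicates, DESeq2 with apeglm shrinkage.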

First: RRIRPRPPRLPRPRPRPRSAPRP
Second: RRIRTRPPRLPRPRPRPGIHPRP
The “shrunken log2 fold change” value of the first is higher: 0.497 for the first, -0.158 for the second.

RRIRDRPPRLPRPRPRPAMAPRP and RRIRARPPRLPRPRPRPWLWPRP are within 0.2 log units of each other in “shrunken log2 fold change” value: 0.575 for the first, 0.435 for the second.

First: RRIRTRPPRLPRPRPRPYSQPRP
Second: RRIRFRPPRLPRPRPRPWWRPRP
The “shrunken log2 fold change” value of the first is higher: -0.0274 for the first, -0.471 for the second.

Going from RRIRYRPPRLPRPRPRPRFVPRP to RRIRPRPPRLPRPRPRPCINPRP, the “shrunken log2 fold change” value rises from -1.02 to -0.726.

RRIRPRPPRLPRPRPRPMQSPRP and RRIRPRPPRLPRPRPRPRTSPRP are within 0.2 log units of each other in “shrunken log2 fold change” value: 0.524 for the first, 0.59 for the second.

First: RRIRIRPPRLPRPRPRPWNCPRP
Second: RRIRRRPPRLPRPRPRPPWNPRP
The “shrunken log2 fold change” value of the first is lower: -0.000121 for the first, 0.474 for the second.

Going from RRIRMRPPRLPRPRPRPNRIPRP to RRIRWRPPRLPRPRPRPKKNPRP, the “shrunken log2 fold change” value rises from -0.18 to 0.341.

Compared with RRIRHRPPRLPRPRPRPLQPPRP, RRIRHRPPRLPRPRPRPAPNPRP is higher in “shrunken log2 fold change” value: 0.157 for the first, 0.497 for the second.

RRIRLRPPRLPRPRPRPFLDPRP and RRIRPRPPRLPRPRPRPGLYPRP are within 0.2 log units of each other in “shrunken log2 fold change” value: -0.228 for the first, -0.132 for the second.

RRIRERPPRLPRPRPRPRWSPRP and RRIRVRPPRLPRPRPRPGSYPRP are within 0.2 log units of each other in “shrunken log2 fold change” value: -0.078 for the first, -0.186 for the second.

Going from RRIRNRPPRLPRPRPRPNAEPRP to RRIRMRPPRLPRPRPRPIPGPRP, the “shrunken log2 fold change” value falls from 0.388 to 0.105.

Going from RRIRFRPPRLPRPRPRPLAYPRP to RRIRGRPPRLPRPRPRPHTSPRP, the “shrunken log2 fold change” value rises from -0.534 to -0.00444.

Going from RRIRQRPPRLPRPRPRPFGGPRP to RRIRSRPPRLPRPRPRPNLMPRP, the “shrunken log2 fold change” value falls from 0.0432 to -0.177.

Going from RRIRHRPPRLPRPRPRPRFLPRP to RRIRPRPPRLPRPRPRPSMQPRP, the “shrunken log2 fold change” value falls from 0.0768 to -0.29.

Going from RRIRGRPPRLPRPRPRPRMAPRP to RRIRFRPPRLPRPRPRPHLFPRP, the “shrunken log2 fold change” value falls from 1.06 to -0.238.

Going from RRIRHRPPRLPRPRPRPSYKPRP to RRIRGRPPRLPRPRPRPGPPPRP, the “shrunken log2 fold change” value rises from -0.0553 to 0.97.

Going from RRIRCRPPRLPRPRPRPMFDPRP to RRIRMRPPRLPRPRPRPAQLPRP, the “shrunken log2 fold change” value rises from -0.246 to 0.101.

First: RRIRVRPPRLPRPRPRPDHRPRP
Second: RRIRPRPPRLPRPRPRPFISPRP
The “shrunken log2 fold change” value of the first is higher: -0.272 for the first, -0.706 for the second.

RRIRARPPRLPRPRPRPFYRPRP and RRIRERPPRLPRPRPRPSTPPRP are within 0.2 log units of each other in “shrunken log2 fold change” value: -0.178 for the first, -0.28 for the second.

First: RRIRTRPPRLPRPRPRPEAPPRP
Second: RRIRKRPPRLPRPRPRPAIMPRP
The “shrunken log2 fold change” value of the first is lower: 0.139 for the first, 0.418 for the second.

RRIRKRPPRLPRPRPRPMLAPRP and RRIRMRPPRLPRPRPRPAFWPRP are within 0.2 log units of each other in “shrunken log2 fold change” value: 0.843 for the first, 0.963 for the second.

RRIRNRPPRLPRPRPRPNQHPRP and RRIRYRPPRLPRPRPRPAGYPRP are within 0.2 log units of each other in “shrunken log2 fold change” value: -0.116 for the first, 0.0815 for the second.

First: RRIRGRPPRLPRPRPRPGPHPRP
Second: RRIRNRPPRLPRPRPRPFLFPRP
The “shrunken log2 fold change” value of the first is higher: 0.57 for the first, -0.301 for the second.

First: RRIRNRPPRLPRPRPRPLESPRP
Second: RRIRNRPPRLPRPRPRPGLSPRP
The “shrunken log2 fold change” value of the first is lower: -0.0331 for the first, 0.486 for the second.

Going from RRIRCRPPRLPRPRPRPDQQPRP to RRIRVRPPRLPRPRPRPCYIPRP, the “shrunken log2 fold change” value falls from 0.0369 to -0.281.

Going from RRIRFRPPRLPRPRPRPVQEPRP to RRIRKRPPRLPRPRPRPLEMPRP, the “shrunken log2 fold change” value rises from 0.0623 to 0.659.

Compared with RRIRTRPPRLPRPRPRPGRGPRP, RRIRERPPRLPRPRPRPAKEPRP is lower in “shrunken log2 fold change” value: 0.605 for the first, 0.0889 for the second.

First: RRIRERPPRLPRPRPRPWLIPRP
Second: RRIRQRPPRLPRPRPRPEFTPRP
The “shrunken log2 fold change” value of the first is lower: -0.397 for the first, -0.0117 for the second.

Compared with RRIRYRPPRLPRPRPRPDCPPRP, RRIRPRPPRLPRPRPRPPDHPRP is higher in “shrunken log2 fold change” value: -0.179 for the first, 0.182 for the second.

Compared with RRIRIRPPRLPRPRPRPCNLPRP, RRIRRRPPRLPRPRPRPFKGPRP is higher in “shrunken log2 fold change” value: -0.877 for the first, 0.0185 for the second.
